Measured values from patent publication US10358467B2, “Therapeutic targets for cancer progression” (The Regents of the University of California, priority 2015, dated 2019).

What was measured:
Type in all cases: cell-based
[1] = tested on: cAMP levels in HeLa cells; assay: Measurement of cAMP by radioimmunoassay in HeLa cells
Description: HeLa cells were transfected with DAPLE-WT or DAPLE-FA, serum starved (0.2% FBS, 16 h) and incubated with isobutylmethylxanthine (IBMX, 200 μM, 20 min) followed by Wnt5a stimulation (100 ng/ml, 20 min) and Forskolin (10 uM, 10 min). To stop the reaction, cell medium was replaced with 150 μl of ice-cold TCA 7.5% (w/v). cAMP content in TCA extracts was determined by radioimmunoassay (MA) and normalized. To the amount of protein [(determined using a dyebinding protein assay (Bio-Rad)] per sample as previously described (Ostrom et al, 2001).

[2] = tested on: Gi heterotrimer (Gαi1-YFP, CFP-Gβ1, Gγ2); assay: FRET between Gαi1-YFP and CFP-Gβ1 (Gi activation) in living HeLa cells
Description: (§1) Förster Resonance Energy Transfer (FRET) experiments were performed using the classical ECFP- and EYFP-tagged proteins as donor and acceptor FRET-probe pairs, respectively. Previously validated and published FZD7-CFP construct was a generous gift from Carl-Philip Heisenberg (Witzel et al, 2006). Previously validated Gαi3-YFP and Gαi1-YFP (internally tagged Gαi subunits) and CFP-Gβ1 were generous gifts from Moritz Bunemann (Bunemann et al, 2003; Gibson & Gilman, 2006). Interaction of FZD7-CFP and Gαi3-YFP proteins was studied in HEK293T cells using a Leica inverted laser scanning confocal microscope. […] Loss of FRET upon Gi activation and heterotrimer dissociation was measured between Gαi1-YFP and CFP-Gβ1 proteins co-expressed in living HeLa cells using Olympus FV1000 inverted confocal laser scanning microscope equipped with a 60× 1.49 N.A oil immersed objective designed to minimize chromatic aberration and enhance resolution for 405-605 nm imaging as described previously (Midde et al, 2015). […] FRET efficiency was calculated on a pixel by pixel basis from ratiometric images obtained in individual channels (donor, acceptor and FRET) through a RiFRET plugin in Image J software (Roszik et al, 2009). […]

FZD7R-Gαi3 complexes = assay: FRET between FZD7R-CFP and Gαi3-YFP in HEK293 cells; settings: plasma membrane, within 5 min; starved cells 0.04±0.01
Description: as §1

B1: Wnt5a: recombinant Wnt5a purified from CHO conditioned media (protein, UniProt P41221 62-380, looked up)
Protein Wnt-5a: IIGAQPLCSQLAGLSQGQKKLCHLYQDHMQYIGEGAKTGIKECQYQFRHRRWNCSTVDNTSVFGRVMQIGSRETAFTYAVSAAGVVNAMSRACREGELSTCGCSRAARPKDLPRDWLWGGCGDNIDYGYRFAKEFVDARERERIHAKGSYESARILMNLHNNEAGRRTVYNLADVACKCHGVSGSCSLKTCWLQLADFRKVGDALKEKYDSAAAMRLNSRGKLVQVNSRFNSPTTQDLVYIDPSPDYCVRNESTGSLGTQGRLCNKTSEGMDGCELMCCGRGYDQFKTVQTERCHCKFHWCCYVKCKKCTEIVDQFVCK
With B1 the “suppression of cAMP levels” value ([1]; HeLa cells expressing DAPLE-FA) was “no such suppression”, the “suppression of cAMP levels” value ([1]; HeLa cells expressing DAPLE-WT, Wnt5a 100 ng/ml 20 min) was about 50% and the “drop in FRET after Wnt5a stimulation” value ([2]; DAPLE-depleted HeLa cells) was “No significant drop in FRET”. The “FRET efficiency after Wnt5a stimulation” value ([2]; control HeLa cells, plasma membrane, within 5 min, 0.36±0.08 before stimulation) was 0.17±0.06 and the “FRET efficiency after ligand stimulation” value (FZD7R-Gαi3 complexes) was 0.25±0.06.
